Measured values from the DeepSol protein solubility set.

assay: soluble on expression in E. coli; label from the status in PepcDB or PDB records

Sequence | soluble on expression in E. coli
MKKLINKKETFLTDMLEGLLIAHPELDLIANTVIVKKAKKEHGVAIVSGGGSGHEPAHAGFVAEGMLDAAVCGEVFTSPTPDKILEAIKAVDTGDGVLLVVKNYAGDVMNFEMAQELAEMEGINVQTVIVRDDIAVTNEVQRRGVAGTVFVHKLAGYLAEKGYSLTEIKSRVEALLPEIKSIGMAIEPPLVPTTGKYGFDIEDDKMEIGIGIHGEKGIHREEVKDIDHIVGTLLDELYKEVTANDVILMVNGMGGTPLSELNIVTKYIQQNLAARTVNVAKWFVGDYMTSLDMQGFSITIVPNKPEYLEAFLAPTTSQYFKLEHHHHHH | soluble
MGSLVHVKEATVITPSDQTPSSVLSLSALDSQLFLRFTIEYLLVYPPVSDPEYSLSGRLKSALSRALVPYFPFSGRVREKPDGGGGLEVNCRGQGALFLEAVSDILTCLDFQKPPRHVTSWRKLLSLHVIDVLAGAPPLVVQLTWLRDGGAALAVGVNHCVSDGIGSAEFLTLFAELSKDSLSQTELKRKHLWDRQLLMPSPIRDSLSHPEFNRVPDLCGFVNRFNAERLVPTSVVFERQKLNELKKLASRLGEFNSKHTSFEVLSAHVWRSWARSLNLPSNQVLKLLFSVNIRDRVKPSLPSGFYGNAFVVGCAQTTVKDLTEKGLSYATMLVKQAKERVGDEYVRSVVEAVSKERASPDSVGVLILSQWSRLGLEKLDFGLGKPVHVGSVCCDRYCLLLPIPEQNDAVKVMVAVPSSSVDTYENLVTSPNA | not soluble
MAHHHHHHMDEKPRLIEHTSACRGTADVLILSGFPWYVTEGQVRKYLTEIHPSNIAPLTVRLYTNPANGSSRGICFVEYCPKQSNTGGASQGIKNEFPERKQKGEAEDIAALMKLRIEATAYERHYIRVLLYRLTNRNWDRGGRLPDLPTDPPPLATSRGGVLEGYGDEGFTVRCSALLGLANTVTPNGIASMQTLRKRFREEAAKAAMPNKSDEGYPGSSAARQ | not soluble
VGSEVSDKRTCVSLTTQRLPVSRIKTYTITEGSLRAVIFITKRGLKVCADPQATWVRDVVRSMDRKSNTRNNMIQTKPTGTQQSTNTAVTLTG | soluble
SLQCLRFPGLALPHTRAPSPLGPTRDPVATFLETCREPGSQPAGPASLRAEYLPPSVASIKVSAELLRAALKDGHSGVPLCCATLQWLLAENAAVDVVRARALSSIQGVAPDGANVHLIVREVAMTDLCPAGPIQAVEIQVESSSLADICRAHHAVVGRMQTMVTEQAAQGSSAPDLRVQYLRQIHANHETLLREVQTLRDRLCTEDEASSCATAQRLLQVYRQLRHPSLILL | soluble
MGSDKIHHHHHHMKKYFPSSELIINEDGSVFHLHVKPEWLADKVILVGDPGRVALVASHFENKECEVESREFKTITGTYKGKRITVVSTGIGCDNIDIVMNELDALANINFETREEKEKFRQLELVRIGTCGGLQPNTPVGTFVCSQKSIGFDGLLNFYAGRNAVCDLPFERAFLNHMGWSGNMCAPAPYVIDASEELIDRIAKEDMVRGVTIAAGGFFGPQGRELRIPLADPKQNDKIEAFEYKGFKITNFEMESSALAGLSRLMGHKAMTVCMVIANRLIKEANTGYKNTIDTLIKTVLDRI | not soluble
MTFRPFWLDQALRSEHAAPCPPLAGDTRADVCIVGGGYTGLWTAIMLKEHDPGLDVVLVEADLCGAGASGRNGGCALSWSAKFFTLERLFGLTEAIRLVKASEDSIRAIGAFCQRYDVEADYRLDGTLYTATNPAQVGSTDSVIAALERHGINSFAKRPLADVQRLAGSRRHLEGWFSPAAATVQPGKLVRGLRRVALQLGVRLYEGTPMRGLEHGRPAEVVTPHGRVVAGRVVLALNAWMARAFPQFERSVAIVSSDMLITEPRPDLLQEIGLTSGVSVLDSRIFVHYYHNTPDGRLMLGKGGNTFAYGGRMLPVFDRPSPYLGQLRGSLREFFPEFAEVAIEASWNGPSDRSVTGLPFFGRLDGRDNVFYGFGYSGSGVGPCHMGGQILSSLALGLDNPWTRSPLTQGPLGRFPPEPIRYVGSLMVRNAIRRKEHAEDAGRRPRHLDVRLARFAAAAGKADKGLEHHHHHH | not soluble
MITVFGLKSKLAPRREKLAEVIYNSLHLGLDIPKGKHAIRFLCLEKEDFYYPFDRSDDYTVIEINLMAGRMEGTKKRLIKMLFSELEYKLGIRAHDVEITIKEQPAHCWGFRGMTGDEARDLDYDIYV | soluble
DVSGTVCLSALPPEATDTLNLIASDGPFPYSQDGVTFQNRESVLPTQSYGYYHEYTVITPGARTRGTRRIITGEATQEDYYTGDHYATFSLIDQTC | soluble
